Laboratory results taken from article PMC12758336.

Tests used:
[1] = target: NRBF2_3A (UniProt Q8VCQ3); experiment: co-IP; competitive co-IP: FLAG-tagged bait and GFP-tagged competitor transiently over-expressed in HEK293T; anti-FLAG M2 magnetic beads; immunoblot for endogenous PIK3R4/VPS15 and PIK3C3/VPS34; Figure 6C also after 100 nM rapamycin (2 h) or EBSS medium (2 h)
[2] = target: NRBF2_5A (UniProt Q8VCQ3); experiment: as above

## endogenous PIK3R4/VPS15 (from UniProt Q99570 1-1358) (natural protein)
[1]
  endogenous PIK3R4/VPS15 pulled down, against wild type (% less than wild type): 50
[2]
  endogenous PIK3R4/VPS15 pulled down, against wild type (% less than wild type): 50
